The text below walks through data of paper PMC6167325, “Outward open conformation of a Major Facilitator Superfamily multidrug/H^+ antiporter provides insights into switching mechanism” (Nature Communications, 2018).

The experiment has as its target T1, MdfA, major facilitator superfamily (MFS) drug/H+ antiporter from Escherichia coli (Escherichia coli, UniProt P0AEY8).
T1 construct: MdfA, multidrug/H+ antiporter of E. coli; wild type; the final model of the complex holds residues Gln14-Lys400; One complex in the asymmetric unit; also called MFS-MDR transporter; source: purified
As to the kind of experiment: crystal structure; co-crystals of MdfA in complex with the Fab fragment grown in the lipidic cubic phase; 3.4 Å; space group P6(1)22, one complex in the asymmetric unit; data at 100 K. The conditions noted are these: both partners purified.

T1 sequence (P0AEY8 whole entry, the tested form may be a part): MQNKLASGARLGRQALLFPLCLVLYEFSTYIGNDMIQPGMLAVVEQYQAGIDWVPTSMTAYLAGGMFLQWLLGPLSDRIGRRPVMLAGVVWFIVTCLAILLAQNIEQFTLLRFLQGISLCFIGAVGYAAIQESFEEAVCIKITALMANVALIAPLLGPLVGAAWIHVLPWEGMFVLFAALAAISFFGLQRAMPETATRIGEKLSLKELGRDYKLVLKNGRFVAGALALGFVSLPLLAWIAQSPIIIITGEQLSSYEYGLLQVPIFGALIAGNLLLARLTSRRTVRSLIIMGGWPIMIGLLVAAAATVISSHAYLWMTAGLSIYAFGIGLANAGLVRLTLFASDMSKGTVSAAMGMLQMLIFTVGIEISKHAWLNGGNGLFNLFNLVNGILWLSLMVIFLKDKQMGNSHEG

B1: Fab YN1074 (Fab, V domains shown)
VH: EVQLKESGPGLVAPSQSLSITCTVSGFSFSIYGLHWVRQPPGKGLEWLGMIWGGGRTDYNSALKSRLSISKDNSKSQVFLKMKSLQTDDTAMYYCARNSGYGNLAYWGQGTLVTVSA
VL: DIVMTQSPSSLSASLGERVSLTCRASQDIGYSLNWLQQEPDGTIKRLIYATSNLDSGVPKRFSGSRSGSDYSLTISSLESEDFVDYYCLQYASSPYTFGGGTKLEIK
notes: the model holds residues Leu4-Pro216; the model holds residues Asp1-Arg211; also called Fab fragment
On to B1, for which the binding result is recorded as “binds”.
